Measurements reported in patent US20240293588A1, “THERAPEUTIC CONJUGATES” (Starpharma Pty Ltd, priority 2020, published 2024).

Experiments:
ErbB2-ECD = ErbB2-ECD (Homo sapiens, UniProt P04626); experiment: SPR, ErbB2-ECD amine-coupled on chip, analyte injected, 25 °C, 1:1 Langmuir fit
[1] = system: MDA-MB-231/HER2 (HER2 knock in) cells; experiment: In vitro association study (flow cytometry), MDA-MB-231/HER2; assay type: cell-based, human; details: MDA-MB-231/HER2, 3.33 nM, over 24 h, mean±SD
[2] = system: HER2-positive MDA-MB-453 cells; experiment: Binding of 2D3-dendrimer conjugates to MDA-MB-453 cells (Cy5 MFI); assay type: cell-based, human; details: for MFI (mean fluorescence intensity, Cy5): MDA-MB-453 cells incubated with dendrimers, triplicate wells, mean with standard deviation; for binding to MDA-MB-453 cells: flow cytometry, result in words
[3] = target: T1, HER2 (human epidermal growth factor receptor 2) on cells (human, UniProt P04626 23-1255); experiment: flow cytometry (Cy5), BT-474 cells, 1 h, conjugate at 12 mM (so in the source)
T1 construct: whole, on cells; also called ERBB2; HER2 receptor

[4] = target: T1, HER2 (human epidermal growth factor …); experiment: flow cytometry (Cy5), BT-474 cells, 1 h, conjugate at 6 mM (so in the source)
[5] = target: T1, HER2 (human epidermal growth factor …); experiment: flow cytometry (Cy5), BT-474 cells, 1 h, conjugate at 3 mM (so in the source)
[6] = target: T1, HER2 (human epidermal growth factor …); experiment: flow cytometry (Cy5), BT-474 cells, 1 h, conjugate at 25 mM (so in the source)

Molecule	Kd (ErbB2-ECD)	koff (ErbB2-ECD)	kon (ErbB2-ECD)	MFI [3]	MFI [4]	MFI [5]	MFI [6]	percent of cellular association [1]	MFI (mean fluorescence intensity, Cy5) [2]	binding to MDA-MB-453 cells [2]
(MeTzPh)PEG4CO-NHPEG24CO—[N(PN)2][Lys]2[Lys]4[Lys]8[Lys]16[((α-NHCy5)1(α-NHAc)15)(ε-NH-COPEG1100)16], G4 [Compound 53]								significantly lower association	6.827 ± 0.07	did not bind
(MeTzPh)PEG4CO-NHPEG24CO—[N(PN)2][Lys]2[Lys]4[Lys]8[Lys]16[Lys]32[((α-NHCy5)1(α-NHAc)31)(ε-NH-COPEG1100)32], G5 [Compound 54]								significantly lower association	4.349 ± 0.08	did not bind
(MeTzPh)PEG4CO-NHPEG24CO—[N(PN)2][Lys]2[Lys]4[Lys]8[((α-NHCy5)1(α-NHAc)7)(ε-NH-COPEG1100)8], G3 [Compound 52]								significantly lower association	3.097 ± 0.01	did not bind
[(ε-NHCO-PEG1100)16(α-DOTA)7(α-NHCy5)1(α-NH2)8][Lys]16[Lys]8[Lys]4[Lys]2[Lys]-(PN)NCO-PEG24-CONH-PEG4-(PhTzMe)/TCO-NHCO-PEG24-(MAL)Me/Cys-Nanobody SRS-17 (VHH, the additional cysteine (in …) coupled to the methylmaleimide of linker SRS-12 (intermediate SRS-14), whose TCO is joined to the tetrazine of dendrimer HH-2 (1 Cy5, 7 DOTA, 16 PEG1100)) VHH: EVQLVESGGSLVQPGGSLRLSCAASGFTFDDYAMSWVRQVPGKGLEWVSSINWSGTHTDYADSVKGRFTISRNNANNTLYLQMNSLKSEDTAVYYCAKNWRDAGTTWFEKSGSAGQGTQVTVSS				2270	1530	1020	2550			
[(ε-NHCO-PEG1100)16(α-NHCy5)1(α-NHDOTA)8(α-NH2)7][Lys]16[Lys]8[Lys]4[Lys]2[Lys]-CONH-CH2-CH2-S-(Me)MAL-PEG24-CONH-Bn-Tz(Me)/TCO-NHCO-PEG24-(MAL)Me/Cys-Nanobody … (VHH, the additional cysteine (in …) coupled to the methylmaleimide of linker SRS-12 (intermediate SRS-14), whose TCO is joined to the tetrazine of dendron RP-5 (1 Cy5, 8 DOTA, 16 PEG1100)) VHH: EVQLVESGGSLVQPGGSLRLSCAASGFTFDDYAMSWVRQVPGKGLEWVSSINWSGTHTDYADSVKGRFTISRNNANNTLYLQMNSLKSEDTAVYYCAKNWRDAGTTWFEKSGSAGQGTQVTVSS				1370	732	716	1450			
[(ε-NHCO-PEG1100)16(α-DOTA)7(α-NHCy5)1(α-NH2)8][Lys]16[Lys]8[Lys]4[Lys]2[Lys]-(PN)NCO-PEG24-CONH-PEG4-(PhTzMe)/TCO-PEG3-NHCO-PEG24-Glu-DBCO/N3-Nanobody SRS-22 (VHH, # (unnatural amino acid, p-azido-phenylalanine, after ...QVTVSS) clicked to the DBCO of SRS-22a (linker Compound 51 on dendrimer HH-2: 1 Cy5, 7 DOTA, 16 PEG1100)) VHH: EVQLVESGGSLVQPGGSLRLSCAASGFTFDDYAMSWVRQVPGKGLEWVSSINWSGTHTDYADSVKGRFTISRNNANNTLYLQMNSLKSEDTAVYYCAKNWRDAGTTWFEKSGSAGQGTQVTVSS				6550	4910	2640	6490			

Second part, led by results:

Kd (ErbB2-ECD)	koff (ErbB2-ECD)	kon (ErbB2-ECD)	MFI [3]	MFI [4]	MFI [5]	MFI [6]	Molecule	percent of cellular association [1]	MFI (mean fluorescence intensity, Cy5) [2]	binding to MDA-MB-453 cells [2]
36 nM	0.00114 s⁻¹	32000 M⁻¹ s⁻¹					Affibody-BCN/N3-PEG24CO-[N(PN)2][Lys]2[Lys]4[Lys]8[(α-NHGlu-vc-PAB-MMAE)8(ε-NH-COPEG2000)8], G3, Compound 78 (designed binder)			
50 nM	0.0013 s⁻¹	25000 M⁻¹ s⁻¹					Affibody-BCN/N3-PEG24CO-[N(PN)2][Lys]2[Lys]4[Lys]8[(α-NHGlu-vc-PAB-MMAE)8(ε-NH-COPEG1100)8], G3, Compound 77 (designed binder)			
			2270	1460	915	2150	[[(ε-NHCO-PEG1100)8(α-NHDOTA)4.75(α-NHCy5)0.5(α-NH2)2.75][Lys]8[Lys]4[Lys]2[Lys]-CONH-CH2-CH2-S-]2MAL-PEG3-NHCO-PEG24-CONH-PEG4-(PhTzMe)/TCO-NHCO-PEG24-(MAL)Me/ … (VHH, the additional cysteine (in …) coupled to the methylmaleimide of linker SRS-12 (intermediate SRS-14), whose TCO is joined to the tetrazine of dendrimer SRS-4-Mal (maleimide core, Cy5, DOTA, PEG1100)) VHH: EVQLVESGGSLVQPGGSLRLSCAASGFTFDDYAMSWVRQVPGKGLEWVSSINWSGTHTDYADSVKGRFTISRNNANNTLYLQMNSLKSEDTAVYYCAKNWRDAGTTWFEKSGSAGQGTQVTVSS			
			3140	2170	1500	3400	[[(ε-NHCO-PEG1100)8(α-NHDOTA)4.75(α-NHCy5)0.5(α-NH2)2.75][Lys]8[Lys]4[Lys]2[Lys]-CONH-CH2-CH2-S-]2MAL-PEG3-NHCO-PEG24-CONH-PEG4-(PhTzMe)/TCO-PEG3-NHCO-PEG24-Glu … (VHH, # (unnatural amino acid, p-azido-phenylalanine, after ...QVTVSS) clicked to the DBCO of SRS-20a (linker Compound 51 on dendrimer SRS-4-Mal: maleimide core, Cy5, DOTA, PEG1100)) VHH: EVQLVESGGSLVQPGGSLRLSCAASGFTFDDYAMSWVRQVPGKGLEWVSSINWSGTHTDYADSVKGRFTISRNNANNTLYLQMNSLKSEDTAVYYCAKNWRDAGTTWFEKSGSAGQGTQVTVSS			
			5260	4640	3100	4760	BHALys[Lys]2[Lys]4[Lys]8[Lys]16[((α-NH-COPEG24NH-COPEG4(PhTzMe)/TCO-PEG3-NHCO-PEG24-(MAL)Me/Cys-Nanobody)1(α-NHCy5)1(α-NHDOTA))10(α-NH2)4)(ε-NH-COPEG1000)16] … (VHH, the additional cysteine (in …) coupled to the methylmaleimide of SRS-21a (linker SRS-12 on G4 dendrimer SRS-1: 1 Cy5, 10 DOTA, 16 PEG1000)) VHH: EVQLVESGGSLVQPGGSLRLSCAASGFTFDDYAMSWVRQVPGKGLEWVSSINWSGTHTDYADSVKGRFTISRNNANNTLYLQMNSLKSEDTAVYYCAKNWRDAGTTWFEKSGSAGQGTQVTVSS			
